Experimental data: paper PMC10164081 (Structure (London, England : 1993), 2023)
Where no end group is shown, it is not given here.

Assays:
[1] = molecular target: Gαolf/13 SwII chimeric sensor (human); assay: cell-based or functional assay
[2] = molecular target: Gαolf/i1 SwII chimeric sensor (human); assay: cell-based or functional assay
purified Ric-8A = molecular target: T1, purified Ric-8A (rat, UniProt Q80ZG1 1-530); assay: differential scanning fluorimetry
T1 sequence (looked up): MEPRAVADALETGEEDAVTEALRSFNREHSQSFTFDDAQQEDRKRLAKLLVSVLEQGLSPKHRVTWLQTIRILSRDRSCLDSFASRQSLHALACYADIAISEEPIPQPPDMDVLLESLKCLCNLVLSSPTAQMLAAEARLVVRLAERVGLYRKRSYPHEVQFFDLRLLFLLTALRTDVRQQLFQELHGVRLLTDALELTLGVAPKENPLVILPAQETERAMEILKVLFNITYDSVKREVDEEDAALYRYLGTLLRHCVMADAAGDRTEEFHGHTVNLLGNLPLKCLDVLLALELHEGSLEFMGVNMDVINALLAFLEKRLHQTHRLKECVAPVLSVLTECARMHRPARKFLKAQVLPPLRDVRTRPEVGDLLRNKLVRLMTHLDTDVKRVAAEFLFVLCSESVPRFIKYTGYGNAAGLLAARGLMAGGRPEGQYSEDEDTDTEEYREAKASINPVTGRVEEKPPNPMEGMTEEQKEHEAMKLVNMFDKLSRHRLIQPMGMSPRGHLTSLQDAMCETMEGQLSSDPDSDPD

B1: phosphorylated Ric-8B (natural protein, mouse, UniProt Q80XE1-1 1-560, looked up)
chain: MDEERALYIVRAGEAGAIERVLRDYSDKHRATFKFESADEDKRKKLCEGIFKVLVKEVPTTCQVSCLEVLRILSRDKKILVPVTTKENMQILLRLAKLHESDDSLEKVSEFPVIVESLKCLCNIVFNSQMAQQLSLELNLAAKLCNLLRKCKDRKFINDIKCFDLRLLFVLSLLHTDIRSQLRYELQGLPLLTQILESAFSIKWTDEYESAIDHNGPPLSPQETDCAIEALKALFNVTVDSWKVHKESDSHQFRVMAAVLRHCLLIVGPTEDKTEELHSNAVNLLSNVPVSCLDVLICPLTHEETAQEAATLDELPSDKTTEKDTALKNSTMVYNGMNMEAIHVLLNFMEKRIDKGSSYREGLTPVLSLLTECSRAHRNIRKFLKDQVLPPLRDVTNRPEVGSTVRNKLVRLMTHVDLGVKQIAAEFLFVLCKERVDSLLKYTGYGNAAGLLAARGLLAGGRGDNWYSEDEDTDTEEYKNAKPNINLITGHLEEPMPNPIDEMTEEQKEYEAMKLVNMLDKLSREELLKPMGLKPDGTITPLEEALSQYSVIEETSSDTD
modifications: phosphoserine at 468, phosphothreonine at 473, and additional positions (Table S1)
For B1, the “folding of the Switch II chimeric Gαolf-RLuc sensor (luminescence) by Ric-8B” value [1] was 50 % decrease and the “folding of the Switch II chimeric Gαolf-RLuc sensor (luminescence) by Ric-8B” value [2] was 88 % of Gαolf.

B2: Gα13 C-term amidated peptide (peptide)
peptide: RDVKDTILHDNLKQLMLQ-NH2
With B2 the “maximal thermal shift (ΔTm)” value (purified Ric-8A) was 3.6 °C.
